The target in data set [1] is Factor VIIa/Tissue Factor (lipidated) complex (UniProt P08709). Description: cell-based or functional assay.
A further data set addresses Factor Xa (UniProt P00742). Description: cell-based or functional assay.
Data set [2] addresses Ixolaris (recombinant, mature protein of 140 amino acids).

UniProt P08709, sequence (P08709 61-466 limits assumed, chain 1 of 2): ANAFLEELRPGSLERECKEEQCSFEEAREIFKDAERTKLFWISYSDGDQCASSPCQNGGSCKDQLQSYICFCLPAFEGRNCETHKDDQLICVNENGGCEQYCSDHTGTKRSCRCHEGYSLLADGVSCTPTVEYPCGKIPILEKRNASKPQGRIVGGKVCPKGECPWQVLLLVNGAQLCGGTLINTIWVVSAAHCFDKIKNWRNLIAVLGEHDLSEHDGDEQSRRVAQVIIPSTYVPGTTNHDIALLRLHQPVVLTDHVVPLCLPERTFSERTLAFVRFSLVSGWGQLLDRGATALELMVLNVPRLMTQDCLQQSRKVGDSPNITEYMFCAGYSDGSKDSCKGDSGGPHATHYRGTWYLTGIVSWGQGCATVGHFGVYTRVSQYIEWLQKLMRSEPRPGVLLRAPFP
UniProt P08709, sequence (P13726 33-295 limits assumed, chain 2 of 2, further chain): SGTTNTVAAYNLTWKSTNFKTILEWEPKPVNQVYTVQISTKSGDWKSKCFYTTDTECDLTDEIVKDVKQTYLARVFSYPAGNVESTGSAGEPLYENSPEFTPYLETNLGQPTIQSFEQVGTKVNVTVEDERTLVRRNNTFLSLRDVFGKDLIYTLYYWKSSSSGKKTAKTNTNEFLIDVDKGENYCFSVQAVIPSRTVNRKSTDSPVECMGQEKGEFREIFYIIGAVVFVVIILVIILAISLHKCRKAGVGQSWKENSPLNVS

With “Ixolaris (recombinant, mature protein of 140 amino acids) (from UniProt Q964Q0 27-165)”, in data set [1], the Residual activity (%) of VIIa/TF (6.4 pM)/S2288 (1 mM) with 32 nM Ixolaris turned out to be 0% and the inhibition of Factor X (200 nM) activation after preincubation of Factor VIIa/TF (1 nM/0.2 pM) with 100 pM Ixolaris came out at 65%. In the data set with Factor Xa, this molecule returned an ED50 of the increase of Factor Xa (125 pM) esterolytic activity on S2222 of 159 pM and an increase of amidolytic activity of Factor Xa (640 pM) by Ixolaris (400 pM) of 40%.

For “Ixolaris/DEGR-Factor X complex (from UniProt P00742 41-488)”, the inhibition of Factor X (200 nM) activation after preincubation of Factor VIIa/TF with 100 pM Ixolaris/DEGR-Factor X in data set [1] is more than 85%.

Regarding “full-length human TFPI (recombinant, 4900PC) (from UniProt P10646 29-304)”, in data set [1], the IC50 of inhibition of Factor VIIa/TF-induced Factor X activation, at 15 nM Factor X stood at 0.61 nM; the IC50 of inhibition of Factor VIIa/TF-induced Factor X activation, at 75 nM Factor X was determined as 0.62 nM; the IC50 of inhibition of Factor VIIa/TF-induced Factor X activation, at 200 nM Factor X worked out at 0.625 nM.

B1: γ-carboxyglutamic acid domainless Factor Xa (des-Gla-Factor Xa) (protein)
chain: KDGDQCETSPCQNQGKCKDGLGEYTCTCLEGFEGKNCELFTRKLCSLDNGDCDQFCHEEQNSVVCSCARGYTLADNGKACIPTGPYPCGKQTLERIVGGQECKDGECPWQALLINEENEGFCGGTILSEFYILTAAHCLYQAKRFKVRVGDRNTEQEEGGEAVHEVEVVIKHNRFTKETYDFDIAVLRLKTPITFRMNVAPACLPERDWAESTLMTQKTGIVSGFGRTHEKGRQSTRLKMLEVPYVDRNSCKLSSSFIITQNMFCAGYDTKQEDACQGDSGGPHVTRFKDTYFVTGIVSWGEGCARKGKYGIYTKVTAFLKWIDRSMKTRGLPKAKSHAPEVITSSPLK
Consider B1, for which, in data set [2], the “activity of 0.4 nM des-Gla-Factor Xa plus 1.6 nM Ixolaris (control without Ixolaris: 1.4±0.12 units of Vmax)” value is recorded as 0.4 nM des-Gla-Factor Xa plus 1.6 nM Ixolaris: 2.78±0.1 units of Vmax and the “fold increase of des-Gla-Factor Xa proteolytic activity in the presence of 1.6 nM Ixolaris” value is “proteolytic activity increased 1.98 fold in the presence of Ixolaris”.

The values are drawn from US20040018516A1.
